These results are taken from paper PMC4219657, “Structural and Mechanistic Basis of Zinc Regulation Across the E. coli Zur Regulon” (PLoS Biology, 2014).

What is called stoichiometry N is the number of molecules, sites or subunits per partner or assembly.

Series [1] addresses T1, Zur WT (Escherichia coli, UniProt P0AC51 1-171).
T1 sequence: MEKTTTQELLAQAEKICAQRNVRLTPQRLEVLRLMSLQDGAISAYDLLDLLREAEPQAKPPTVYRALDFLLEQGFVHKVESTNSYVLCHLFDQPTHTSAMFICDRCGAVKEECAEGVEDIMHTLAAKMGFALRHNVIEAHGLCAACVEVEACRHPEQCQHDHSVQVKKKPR
Put plainly: EMSA; 50 uM ZnSO4; macroscopic Kd-app for two dimers; table footnote a not in material; EMSA: 10 mM Tris pH 8.0, 10 mM NaCl, 100 mM K-glutamate, 167 mM KCl, 1.5 mM MgCl2, 1 mM CaCl2, 50 uM ZnSO4, 1 mM DTT, 0.1 ug/ml BSA, 2 ug/ml salmon sperm DNA, DNA <=45 pM, 22 C, 30 min. The settings on record: protein: recombinant; chain copies: 4; label: 5'-Cy5 on strand 1; blunt.

For series [2], the target named is T2, Zur R52A (Escherichia coli, UniProt P0AC51 1-171, R52A).
T2 sequence: T1 sequence with R52A
Briefly: EMSA; 50 uM ZnSO4; Kd1, first dimer; EMSA: 10 mM Tris pH 8.0, 10 mM NaCl, 100 mM K-glutamate, 167 mM KCl, 1.5 mM MgCl2, 1 mM CaCl2, 50 uM ZnSO4, 1 mM DTT, 0.1 ug/ml BSA, 2 ug/ml salmon sperm DNA, DNA <=45 pM, 22 C, 30 min. The settings on record: protein: recombinant; chain copies: 2; label: 5'-Cy5 on strand 1; blunt. In general terms: In EMSA bound probe runs differently from free probe, usually more slowly.

For series [3], the target named is T3, Zur D49A (Escherichia coli, UniProt P0AC51 1-171, D49A).
T3 sequence: T1 sequence with D49A
Described as above. The settings on record: protein: recombinant; chain copies: 2; label: 5'-Cy5 on strand 1; blunt.

Series [4] deals with T1, Zur WT. Put plainly: EMSA; 50 uM ZnSO4; macroscopic Kd-app for two dimers, Hill ~2.1; EMSA: 10 mM Tris pH 8.0, 10 mM NaCl, 100 mM K-glutamate, 167 mM KCl, 1.5 mM MgCl2, 1 mM CaCl2, 50 uM ZnSO4, 1 mM DTT, 0.1 ug/ml BSA, 2 ug/ml salmon sperm DNA, DNA <=45 pM, 22 C, 30 min. The settings on record: protein: recombinant; chain copies: 4; label: 5'-Cy5 on strand 1; blunt.
Series [5] concerns the molecule itself. Put plainly: crystal structure; Zn-loaded Zur with the 31 bp znuABC operator duplex (31mer2bpOH); hanging drop, 1.5 M ammonium sulfate, 0.1 M citrate pH 5.5, 4°C; refined to 2.50 Å.
Series [6] concerns the molecule itself. Put plainly: SEC; analytical gel filtration of WT Zur, C103S and C88S; elution volume of WT (10.9 ml) as reference; column and buffer not told. A general note: In gel filtration, larger molecules generally elute earlier.
Series [7] addresses T1, Zur WT. Put plainly: X-ray crystallography; Zn2+ (2 per monomer), 2.50 A; EMSA: 10 mM Tris pH 8.0, 10 mM NaCl, 100 mM K-glutamate, 167 mM KCl, 1.5 mM MgCl2, 1 mM CaCl2, 50 uM ZnSO4, 1 mM DTT, 0.1 ug/ml BSA, 2 ug/ml salmon sperm DNA, DNA <=45 pM, 22 C, 30 min. The settings on record: protein: recombinant; chain copies: 4; 3' overhang 2 nt on both strands.
For series [8], the target named is T1, Zur WT. Briefly: X-ray crystallography; Zn2+; Br-DNA, 3.5 A; EMSA: 10 mM Tris pH 8.0, 10 mM NaCl, 100 mM K-glutamate, 167 mM KCl, 1.5 mM MgCl2, 1 mM CaCl2, 50 uM ZnSO4, 1 mM DTT, 0.1 ug/ml BSA, 2 ug/ml salmon sperm DNA, DNA <=45 pM, 22 C, 30 min. The settings on record: protein: recombinant; chain copies: 4; 3' overhang 2 nt on both strands.
Series [9] addresses T1, Zur WT. Put plainly: EMSA; 50 uM ZnSO4; Kd1, first dimer; EMSA: 10 mM Tris pH 8.0, 10 mM NaCl, 100 mM K-glutamate, 167 mM KCl, 1.5 mM MgCl2, 1 mM CaCl2, 50 uM ZnSO4, 1 mM DTT, 0.1 ug/ml BSA, 2 ug/ml salmon sperm DNA, DNA <=45 pM, 22 C, 30 min. The settings on record: protein: recombinant; chain copies: 4; label: 5'-Cy5 on strand 1; blunt.
In series [10] the target is T1, Zur WT. Put plainly: EMSA; 50 uM ZnSO4; macroscopic Kd-app for two dimers; EMSA: 10 mM Tris pH 8.0, 10 mM NaCl, 100 mM K-glutamate, 167 mM KCl, 1.5 mM MgCl2, 1 mM CaCl2, 50 uM ZnSO4, 1 mM DTT, 0.1 ug/ml BSA, 2 ug/ml salmon sperm DNA, DNA <=45 pM, 22 C, 30 min. The settings on record: protein: recombinant; chain copies: 4; label: 5'-Cy5 on strand 1; blunt.

Changes are numbered by the printed parent chain. Names and notes keep the numbering of the source.

B1: PzinT 51 bp (dsDNA)
DNA 1: CCCATTTTGCTATATGTTACAATATAACATTACACATCATATACATTAAGG
DNA 2: CCTTAATGTATATGATGTGTAATGTTATATTGTAACATATAGCAAAATGGG
As for B1, in series [1], the Kd was found to be 5.3e-20 M^2.

B2: PL31p 51 bp (dsDNA)
DNA 1: CCATCATTTTTACCTGTTATGTTATAACATAACCATAAAGATACATGCTGG
DNA 2: CCAGCATGTATCTTTATGGTTATGTTATAACATAACAGGTAAAAATGATGG
As for B2, the Kd in series [1] came out at 2.5e-20 M^2.

B3: PznuABC 51 bp (dsDNA)
DNA 1: CCGAATATGAGAAGTGTGATATTATAACATTTCATGACTACTGCAAGACGG
DNA 2: CCGTCTTGCAGTAGTCATGAAATGTTATAATATCACACTTCTCATATTCGG
Consider B3, for which the Kd turned out to be 2.6 nM in series [2], 2.1 nM in series [3] and 8.2e-18 M^2 in series [4].

B4: E. coli zinc uptake regulator (Zur), wild type (natural protein)
chain: T1 sequence
notes: Zinc uptake regulator Zur of Escherichia coli; the crystal model includes residues 5-152 of each of four chains (A-D); Zinc-loaded (two Zn2+ sites per monomer); no tag is named; also called EcZur; WTZur; source: E. coli BL21 (DE3), pET24d-based plasmid, purified (heparin column)
B4: in series [5], the “stoichiometry N” value amounted to 4.

B5: E. coli Zur site B mutant C88S (natural protein)
chain: T1 sequence with C88S
notes: Zinc uptake regulator Zur of Escherichia coli with C88S (zinc site B); also called B-site (C88S) mutant; source: E. coli BL21 (DE3), pET24d-based plasmid, purified (heparin column)
For the molecule B5, the “stoichiometry N” value in series [6] turned out to be 2.

B6: 31mer2bpOH (dsDNA)
DNA 1: AGAAGTGTGATATTATAACATTTCATGACTATG
DNA 2: TAGTCATGAAATGTTATAATATCACACTTCTCA
For the molecule B6, the binding result in series [7] is “binds”.

B7: Br-31mer2bpOH (dsDNA)
DNA 1: B6 DNA 1 with T8U, T22U
DNA 2: B6 DNA 2
modifications: 5-bromo-dU at positions 8 and 22 of strand 1 (dU-Br)
In the case of B7, the binding result in [8] was “binds”.

B8: PpliG 51 bp (dsDNA)
DNA 1: CCATGAGTACGATGAACTGTTATAATATAACAATCCCTAACGGGAGAAGG
DNA 2: CCTTCTCCCGTTAGGGATTGTTATATTATAACAGTTCATCGTACTCATGG
As for B8, the results for the Kd in [9] and in series [10] were 28 nM and 5.2e-16 M^2, respectively.
